Test results: patent US20240116985A1 (published 2024)
Starred links: 1 amine or outer side, 2 acyl side, 3 side chain; linkers in the order of their positions; H or OH if unused. Positions of bridges follow the written chain, without caps; N, C: chain ends. Non-standard residues stand in square brackets, D forms with d. Primed or numbered codes have the meaning given here. ξ: configuration not given here. PyrS2″ = (S)-3-amino-1-((pent-4-en-1-yloxy)carbonyl)pyrrolidine-3-carboxylic acid (stapling residue), C=CCCCOC(=O)N1CC[C@@](N[*:1])(C(=O)[*:2])C1; B5(4) = 2,2-bis(4-pentenyl)glycine = 2-amino-2-(pent-4-en-1-yl)hept-6-enoic acid (stitching residue), C=CCCCC(CCCC=C)(N[*:1])C(=O)[*:2]; TfeGA = (S)-2-amino-3-((carboxymethyl)(2,2,2-trifluoroethyl)amino)propanoic acid, O=C([C@H](CN(CC(=O)[*:3])CC(F)(F)F)N[*:1])[*:2]; PyrS2 = (S)-3-amino-1-((pent-4-en-1-yloxy)carbonyl)pyrrolidine-3-carboxylic acid, C=CCCCOC(=O)N1CC[C@@](N[*:1])(C(=O)[*:2])C1; B5(3) = 2,2-bis(4-pentenyl)glycine (stitching residue), C=CCCCC(CCCC=C)(N[*:1])C(=O)[*:2]; B5″ = 2,2-bis(4-pentenyl)glycine, stitching residue, C=CCCCC(CCCC=C)(N[*:1])C(=O)[*:2]; Trp(1-Me) = Cn1cc(C[C@H](N)C(=O)O)c2ccccc21; Phe(2-Cl) = N[C@@H](Cc1ccccc1Cl)C(=O)O; Bta = N[C@@H](Cc1csc2ccccc12)C(=O)O; Lys(iPr) = CC(C)NCCCC[C@H](N)C(=O)O; αAllylPro = C=CC[C@@]1(C(=O)O)CCCN1; tBuAla = CC(C)(C)C[C@H](N)C(=O)O; 3Thi = N[C@@H](Cc1ccsc1)C(=O)O; Cha = N[C@@H](CC1CCCCC1)C(=O)O; S8 = C=CCCCCCC[C@](C)(N)C(=O)O; ξβ3hD = NC(CC(=O)O)CC(=O)O; Aib = CC(C)(N)C(=O)O

T1: B-cat-Halo (beta-catenin HaloTag construct expressed in HEK293 cells) (UniProt P35222 1-781)
T1 sequence (looked up): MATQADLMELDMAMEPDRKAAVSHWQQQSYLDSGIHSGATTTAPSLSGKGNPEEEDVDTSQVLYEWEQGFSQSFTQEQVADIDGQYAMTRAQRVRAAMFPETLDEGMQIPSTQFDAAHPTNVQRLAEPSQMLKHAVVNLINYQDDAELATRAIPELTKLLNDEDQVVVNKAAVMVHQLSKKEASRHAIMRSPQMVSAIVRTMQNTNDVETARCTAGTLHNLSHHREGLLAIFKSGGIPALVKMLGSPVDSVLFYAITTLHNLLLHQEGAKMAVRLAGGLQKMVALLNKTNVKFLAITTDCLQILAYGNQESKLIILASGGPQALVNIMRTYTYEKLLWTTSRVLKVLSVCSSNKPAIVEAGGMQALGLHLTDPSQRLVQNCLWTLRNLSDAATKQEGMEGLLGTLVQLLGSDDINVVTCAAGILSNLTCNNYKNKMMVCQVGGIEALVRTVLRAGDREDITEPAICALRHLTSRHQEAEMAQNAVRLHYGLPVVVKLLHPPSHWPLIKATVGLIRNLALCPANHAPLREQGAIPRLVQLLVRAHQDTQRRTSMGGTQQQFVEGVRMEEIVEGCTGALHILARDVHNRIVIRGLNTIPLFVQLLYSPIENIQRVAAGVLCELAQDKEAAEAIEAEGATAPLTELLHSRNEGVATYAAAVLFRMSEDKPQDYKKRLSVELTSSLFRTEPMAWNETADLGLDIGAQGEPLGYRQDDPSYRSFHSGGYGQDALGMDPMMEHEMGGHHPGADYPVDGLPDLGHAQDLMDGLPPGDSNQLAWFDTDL

T2: full-length beta-Catenin (Uniprot ID P35222) (Homo sapiens (Human), UniProt P35222 2-781)
T2 construct: also called bCat; B-Catenin
T2 sequence: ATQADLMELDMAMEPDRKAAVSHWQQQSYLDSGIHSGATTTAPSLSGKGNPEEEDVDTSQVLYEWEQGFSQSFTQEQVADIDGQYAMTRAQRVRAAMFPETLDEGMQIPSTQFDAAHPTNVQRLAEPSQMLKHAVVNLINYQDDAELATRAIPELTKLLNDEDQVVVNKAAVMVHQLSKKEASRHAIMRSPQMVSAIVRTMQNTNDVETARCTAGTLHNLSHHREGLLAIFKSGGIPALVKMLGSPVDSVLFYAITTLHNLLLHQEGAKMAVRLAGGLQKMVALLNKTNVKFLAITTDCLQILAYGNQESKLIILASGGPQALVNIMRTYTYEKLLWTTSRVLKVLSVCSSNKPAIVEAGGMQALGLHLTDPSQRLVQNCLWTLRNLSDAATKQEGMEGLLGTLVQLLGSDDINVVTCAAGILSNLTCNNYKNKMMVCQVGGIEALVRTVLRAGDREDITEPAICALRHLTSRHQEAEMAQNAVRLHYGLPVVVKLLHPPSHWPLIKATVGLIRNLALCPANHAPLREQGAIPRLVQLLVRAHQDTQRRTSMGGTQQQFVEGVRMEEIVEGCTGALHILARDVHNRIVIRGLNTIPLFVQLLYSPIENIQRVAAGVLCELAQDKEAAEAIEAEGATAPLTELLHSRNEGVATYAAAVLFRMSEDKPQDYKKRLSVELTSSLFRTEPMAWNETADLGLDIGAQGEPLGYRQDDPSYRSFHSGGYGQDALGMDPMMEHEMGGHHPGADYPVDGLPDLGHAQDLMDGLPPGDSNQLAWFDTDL

T3: beta-catenin in TCF/LEF luciferase reporter cells (Homo sapiens (Human), UniProt P35222 1-781)
T3 sequence: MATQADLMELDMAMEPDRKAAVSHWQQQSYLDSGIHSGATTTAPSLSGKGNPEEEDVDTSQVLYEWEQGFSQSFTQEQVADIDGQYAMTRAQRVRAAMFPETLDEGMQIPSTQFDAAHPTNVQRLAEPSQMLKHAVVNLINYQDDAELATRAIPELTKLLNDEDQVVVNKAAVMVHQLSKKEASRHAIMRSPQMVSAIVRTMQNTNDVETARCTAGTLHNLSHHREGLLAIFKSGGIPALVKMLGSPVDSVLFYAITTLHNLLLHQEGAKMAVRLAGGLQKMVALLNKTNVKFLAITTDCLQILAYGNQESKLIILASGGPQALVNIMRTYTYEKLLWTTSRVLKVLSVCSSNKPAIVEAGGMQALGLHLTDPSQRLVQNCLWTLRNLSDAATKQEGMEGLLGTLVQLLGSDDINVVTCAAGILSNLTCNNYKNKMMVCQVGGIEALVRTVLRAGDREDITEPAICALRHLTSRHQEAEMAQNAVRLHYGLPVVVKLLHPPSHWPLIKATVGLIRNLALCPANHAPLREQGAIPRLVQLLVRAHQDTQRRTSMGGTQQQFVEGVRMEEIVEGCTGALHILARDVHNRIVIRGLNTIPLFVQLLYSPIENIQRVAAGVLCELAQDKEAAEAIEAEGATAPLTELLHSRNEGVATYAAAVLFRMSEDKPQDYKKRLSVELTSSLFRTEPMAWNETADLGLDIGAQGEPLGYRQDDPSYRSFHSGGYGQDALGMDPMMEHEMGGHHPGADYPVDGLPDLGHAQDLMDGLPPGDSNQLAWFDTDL


molecular target: T1, B-cat-Halo (beta-catenin HaloTag …); assay: cell-based or functional assay

Point of comparison: Ac-[αAllylPro]D[tBuAla][B5(4)]DTAAFL[PyrS2″][3Thi][Bta]Q-NH2 (staple 1-4, 4-11) [I-1167], “NanoBRET Abs IC50” value 11.7 µM. Against it:
- Ac-[αAllylPro]D[tBuAla][B5(4)]DTAAFT[PyrS2″][3Thi][Bta]Q-NH2 (staple 1-4, 4-11) [I-1166] — within 1.5-fold, 14.6 µM
- Ac-[αAllylPro][ξβ3hD][tBuAla][B5(4)]D[TfeGA]AAFN[PyrS2″][3Thi][Bta]Q-NH2 (staple 1-4, 4-11) [I-1161] — higher, > 20 µM
- Ac-[αAllylPro]D[tBuAla][B5″]DDAAFL[S8][3Thi][Bta]H-NH2 (staple 1-4, 4-11) [I-1195] — within 1.5-fold, 16.2 µM
- Ac-[αAllylPro]D[tBuAla][B5(4)]DTAAFT[PyrS2″][3Thi][Bta]S-NH2 (staple 1-4, 4-11) [I-1170] — within 1.5-fold, 13.5 µM
- Ac-[αAllylPro]D[tBuAla][B5″]DDAAFL[S8][3Thi][Bta]Q-NH2 (staple 1-4, 4-11) [I-1188] — 1.6-fold lower, 7.2 µM
- Ac-[αAllylPro]D[tBuAla][B5(4)]DD[Aib]AFL[PyrS2″][3Thi][Bta]Q-NH2 (staple 1-4, 4-11) [I-1177] — 2.7-fold lower, 4.3 µM
- Ac-[αAllylPro]D[Cha][B5(4)]DTAAFT[PyrS2″][3Thi][Bta]Q-NH2 (staple 1-4, 4-11) [I-1173] — within 1.5-fold, 17.2 µM

molecular target: T2, full-length beta-Catenin (Uniprot ID …); assay: fluorescence polarization competition; full-length beta-catenin, 5FAM-TCF4(10-53) probe as competitor
Protocol: The plate was incubated protected from light for 60 minutes at 20° C. prior to read. Reads were performed on a CLARIOstar plate reader (BMG Labtech) in duplicate, and data were fitted to a 1:1 binding model with hill slope using an in-house script. All provided concentrations are final concentrations.

Point of comparison: Ac-[αAllylPro]N[tBuAla][B5(4)]DT[Lys(iPr)]AFL[PyrS2]YWQ-NH2 (staple 1-4, 4-11) [I-1590], IC50 7.52 µM. Against it:
- Ac-[αAllylPro]N[tBuAla][B5(4)]DT[Lys(iPr)]AFL[PyrS2″]F[Trp(1-Me)]Q-NH2 (staple 1-4, 4-11) [I-1589] — within 1.5-fold, 10 µM
- Ac-[αAllylPro]N[tBuAla][B5(4)]DT[Lys(iPr)]AFL[PyrS2″]FYQ-NH2 (staple 1-4, 4-11) [I-1585] — within 1.5-fold, 10 µM

molecular target: T3, beta-catenin in TCF/LEF luciferase …; assay: cell-based or functional assay

Point of comparison: Ac-[αAllylPro]D[tBuAla][B5(3)]D[TfeGA]AAFL[PyrS2][3Thi][Bta]Q-NH2 (staple 1-4, 4-11) [I-849], “TCF Reporter Assay Abs IC50 (uM), peptide + ST-Protein” value 0.2 µM. Against it:
- Ac-[αAllylPro]D[tBuAla][B5(3)]D[TfeGA]AAFT[PyrS2″][Phe(2-Cl)][Bta]Q-NH2 (staple 1-4, 4-11) [I-922] — the same, 0.2 µM

Point of comparison: Ac-[αAllylPro]D[tBuAla][B5(3)]D[TfeGA]AAFT[PyrS2″][Phe(2-Cl)][Bta]Q-NH2 (staple 1-4, 4-11) [I-922], “TCF Reporter Assay Abs IC50 (uM), peptide only” value 5 µM. Against it:
- Ac-[αAllylPro]D[tBuAla][B5(3)]D[TfeGA]AAFL[PyrS2][3Thi][Bta]Q-NH2 (staple 1-4, 4-11) [I-849] — the same, 5 µM
